Data published in US20220185894A1 (F STAR THERAPEUTICS, published 2022).
Substitutions are numbered along the chain they refer to. Each block holds one binder with its values, some of them ahead of it.

Legend:
[1] = target: T1, mouse LAG-3 expressed on cells (mouse, UniProt Q61790 24-521); test: flow cytometry on HEK cells expressing murine LAG-3
T1 construct: also called mLAG-3; murine LAG-3 HEK
T1 sequence: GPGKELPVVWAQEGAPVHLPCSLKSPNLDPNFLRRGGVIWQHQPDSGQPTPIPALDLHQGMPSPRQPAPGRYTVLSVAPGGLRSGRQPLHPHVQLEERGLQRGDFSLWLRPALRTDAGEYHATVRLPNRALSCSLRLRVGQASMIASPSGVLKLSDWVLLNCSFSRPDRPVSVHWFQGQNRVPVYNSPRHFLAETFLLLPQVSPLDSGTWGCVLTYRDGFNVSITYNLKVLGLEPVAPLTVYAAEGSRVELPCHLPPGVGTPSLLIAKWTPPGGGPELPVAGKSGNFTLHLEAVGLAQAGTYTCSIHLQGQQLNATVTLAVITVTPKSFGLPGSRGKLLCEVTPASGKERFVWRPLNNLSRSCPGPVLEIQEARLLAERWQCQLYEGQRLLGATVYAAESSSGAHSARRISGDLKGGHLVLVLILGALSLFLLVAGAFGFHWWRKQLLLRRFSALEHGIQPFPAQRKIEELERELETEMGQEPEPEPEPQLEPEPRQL
Method: (§1) The affinity of the mAb² (all containing the LALA mutations) binding to cell expressed murine LAG-3 or murine PD-L1 was determined using flow cytometry. HEK cells expressing murine LAG-3 or murine PD-L1 grown in DMEM (Life Technologies, 61965-026) containing 10% FBS (Life Technologies, 10270-1-6), 100 μg/ml Hygromycin B (Melford Laboratories Ltd, Z2475), 15 μg/ml Blasticidin (Melford Laboratories Ltd, B1105) and 1 μg/ml Doxycyclin (Sigma, D9891) were detached from tissue culture flasks using cell dissociation buffer (Life Technologies, 13151-014) and seeded in V-bottom 96-well plates (Costar, 3897) at 2×10⁵ cells/well. The plates were centrifuged at 1500 rpm for 3 min at 4° C. to pellet the cells. A dilution series of the mAb² (or control mAb) were incubated with the cells in a 60 μl volume for 1 h at 4° C. The plates were washed and secondary antibody (Anti-human Fc-488, Jackson ImmunoResearch, 109-546-098 for mAb² or Anti-Rat IgG (H+L), Alexa Fluor 488, ThermoFisher, A-11006 for anti-LAG-3 control, C9B7W) was diluted 1:1000 in PBS and 50 μl was added to the cells for 30 min at 4° C. (plates were kept in the dark). The plates were washed then cells were resuspended in 50 μl FACS Cell Fix (BD Bioscience, 340181) for 15 minutes, then washed and resuspended in 100 μl PBS containing 1 μg/ml DAPI (Biotium, 40043). The plates were read using Canto II flow cytometer (BD Bioscience). Dead cells were excluded and the fluorescence in the FITC channel (488 nm/530/30) was measured. The data was fit using log (agonist) vs response in GraphPad Prism Software. The plates were read on a BD FACSCanto II cytometer (BD Biosciences) and the data analysed using FlowJo.

[2] = target: T2, murine PD-L1 expressed on cells (mouse, UniProt Q9EP73 19-290); test: flow cytometry on HEK cells expressing murine PD-L1
T2 construct: also called murine PD-L1 HEK
Method: as §1, with “The plates were washed then cells were resuspended in 50 μl FACS Cell Fix (BD Bioscience, 340181) for 15 minutes, then washed and resuspended in 100 μl PBS containing 1 μg/ml DAPI (Biotium, 40043).” left out, “The data was fit using log (agonist) vs response in GraphPad Prism Software.” left out

[3] = target: T3, human PD-L1 Fc (R&D Systems, 156-B7) (human, UniProt Q9NZQ7 19-239); test: SPR, BIAcore T200; mAb captured on Protein L, PD-L1 Fc injected
T3 construct: Bought protein; not shown: Fc tag of the bought fusion protein

[4] = target: T4, recombinant Fc-tagged human LAG-3 (R&D Systems, 2319-L3-050) (human, UniProt P18627 23-450); test: SPR, mAb captured on Protein L, human LAG-3 Fc injected (from 0.5 nM)
T4 construct: Bought protein; also called LAG-3 Fc; human LAG-3-Fc; not shown: Fc tag of the bought fusion protein
T4 sequence: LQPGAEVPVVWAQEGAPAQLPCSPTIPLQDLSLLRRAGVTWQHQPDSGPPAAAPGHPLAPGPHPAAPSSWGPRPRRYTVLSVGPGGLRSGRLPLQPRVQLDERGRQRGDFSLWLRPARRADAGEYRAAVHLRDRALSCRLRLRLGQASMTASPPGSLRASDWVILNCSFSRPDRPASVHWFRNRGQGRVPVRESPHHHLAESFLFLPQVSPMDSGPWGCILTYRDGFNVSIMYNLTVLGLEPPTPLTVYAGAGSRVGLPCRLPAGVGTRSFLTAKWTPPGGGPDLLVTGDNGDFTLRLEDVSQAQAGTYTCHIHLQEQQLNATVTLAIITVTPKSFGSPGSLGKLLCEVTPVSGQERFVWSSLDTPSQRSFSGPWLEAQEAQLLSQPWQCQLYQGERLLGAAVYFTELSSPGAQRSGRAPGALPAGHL
Method: Protein L (Thermo, 21189) was immobilized on flow cells 1 and 2 of a Series S CM5 chip (GE Healthcare, BR-1005-30) by amine coupling (GE Healthcare, BR-1000-50) to a surface density of 2000 RU by following the manufacturer's instructions for the BIAcore T200 instrument. […] The association time was 3 min and the dissociation time was 6 min. Running buffer was HBS-P (GE Healthcare, BR-1003-68). Both flow cells were regenerated by injecting 10 mM sodium hydroxide (NaOH) at a flow rate of 100 μl/min for 20 seconds. The data were analysed by double referencing against the blank flow cell.
The binding kinetics were fit with a 1:1 Langmuir model to generate binding association (kₐ) and dissociation (kd) rates. Equilibrium binding constants (KD) were calculated by dividing the dissociation rate by the association rate for each sample. Data analysis was performed with BiaEvaluation software version 3.2.

[5] = target: T1, mouse LAG-3 expressed on cells; test: flow cytometry on HEK cells expressing mouse LAG-3
Method: The plates were centrifuged at 1500 rpm for 3 min at 4° C. to pellet the cells. […] (plates were kept in the dark). […] The plates were read using Canto II flow cytometer (BD Bioscience). Dead cells were excluded and the fluorescence in the FITC channel (488 nm/530/30) was measured. The data was fit using log (agonist) vs response in GraphPad Prism Software.

[6] = target: T1, mouse LAG-3 expressed on cells; test: flow cytometry on HEK cells expressing mouse LAG-3; remark: listed apart in the source
Method: HEK cells expressing mLAG-3 grown in DMEM (Life Technologies, 61965-026) containing 10% FBS (Life Technologies, 10270-1-6), 100 μg/ml Hygromycin B (Melford Laboratories Ltd, Z2475), 15 μg/ml Blasticidin (Melford Laboratories Ltd, B1105) and 1 μg/ml Doxycyclin (Sigma, D9891) were detached from tissue culture flasks using cell dissociation buffer (Life Technologies, 13151-014). Cells were collected by centrifuged at 1500 rpm for 3 min at 4° C. to pellet the cells and then resuspended in 1×DPBS then seeded in V-bottom 96-well plates (Costar, 3897) at 1.2×10⁵ cells/well in 30 μl. A 1:1 volume of a dilution series of the mAb² (or control mAb) was added and incubated with the cells for 1 h at 4° C. The plates were washed and secondary antibody (Anti-human Fc-488, Jackson ImmunoResearch, 109-546-098) was diluted 1:1000 in PBS and 60 μl was added to the cells for 30 min at 4° C. (plates were kept in the dark). The plates were then washed and the cells resuspended in 60 μl PBS containing 1 μg/ml DAPI (Biotium, 40043). The plates were read using Canto II flow cytometer (BD Bioscience). Dead cells were excluded and the fluorescence in the FITC channel (488 nm/530/30) was measured. The data was fitted using log (agonist) vs response in GraphPad Prism Software.

[7] = target: T5, mouse LAG-3 Fc (R&D Systems, 3328-L3-050) (mouse, UniProt Q61790 24-442); test: SPR, Biacore 3000; mLAG-3 Fc immobilised, Fcab injected
T5 construct: Bought protein; also called mLAG-3 Fc; murine LAG-3Fc; not shown: Fc tag of the bought fusion protein
T5 sequence: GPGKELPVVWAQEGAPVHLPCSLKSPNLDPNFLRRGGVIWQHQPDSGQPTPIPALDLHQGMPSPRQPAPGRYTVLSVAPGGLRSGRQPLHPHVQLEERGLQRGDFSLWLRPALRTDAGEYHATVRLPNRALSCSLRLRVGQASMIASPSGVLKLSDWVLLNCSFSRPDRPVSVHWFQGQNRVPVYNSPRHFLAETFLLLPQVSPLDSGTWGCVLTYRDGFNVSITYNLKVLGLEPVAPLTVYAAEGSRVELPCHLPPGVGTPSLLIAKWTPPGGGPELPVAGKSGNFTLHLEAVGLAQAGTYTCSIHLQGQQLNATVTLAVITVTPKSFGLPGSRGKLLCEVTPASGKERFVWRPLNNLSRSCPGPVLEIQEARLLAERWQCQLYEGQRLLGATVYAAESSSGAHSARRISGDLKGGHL
Method: A Biacore 3000 (GE Healthcare) was used to measure the affinity of the surrogate Fcabs specific for mouse LAG-3 to mouse LAG-3. […] Fcabs were diluted in HBS-P buffer (GE Healthcare, BR-1003-68) and injected at various concentrations (fourfold dilutions from 100 nM) for 3 min at 20 μl/min and then allowed to dissociate in buffer for 12 min. The chip was regenerated by injection of 10 mM glycine pH 2.5 for 30 s at 30 μl/min. Data was double reference subtracted and analyzed using BIAevaluation 3.2 software to calculate kinetic constants.

[8] = target: T5, mouse LAG-3 Fc (R&D Systems, …); test: flow cytometry; inhibition of mouse LAG-3 Fc binding to MHC class II on A375 cells
Method: (§2) The plates were centrifuged at 1500 rpm for 3 min at 4° C. to pellet the cells. […] LAG-3/Fcab mix was added to the A375 cells and incubated for 1 h at 4° C. Cells were washed. Secondary antibody (Alexa Fluor 488 conjugated goat anti-human Fc F(ab′)₂, Jackson Immunoresearch, 109-546-098 or Goat anti-mouse IgG (H+L) 488 conjugate, Life Technologies, A-1101) was diluted 1:1000 in PBS and 100 μl was added to the cells for 30 min at 4° C. (plates were kept in the dark). Cells were washed once in PBS and resuspended in 100 μl PBS+1 μg/ml DAPI (Biotium, 40043). The plates were read on a BD FACSCanto II cytometer (BD Biosciences) and the data analysed using FlowJo software.

[9] = target: T4, recombinant Fc-tagged human LAG-3 (R&D …); test: flow cytometry; inhibition of human LAG-3 Fc binding to MHC class II on A375 cells
Method: as §2

T3 sequence (Q9NZQ7 19-239 limits assumed): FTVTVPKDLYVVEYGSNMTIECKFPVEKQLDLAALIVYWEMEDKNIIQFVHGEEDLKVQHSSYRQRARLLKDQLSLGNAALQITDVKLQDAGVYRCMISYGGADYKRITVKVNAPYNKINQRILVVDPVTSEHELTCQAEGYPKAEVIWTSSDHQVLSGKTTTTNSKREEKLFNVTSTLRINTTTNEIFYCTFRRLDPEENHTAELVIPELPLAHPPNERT
T2 sequence (Q9EP73 19-290 limits assumed): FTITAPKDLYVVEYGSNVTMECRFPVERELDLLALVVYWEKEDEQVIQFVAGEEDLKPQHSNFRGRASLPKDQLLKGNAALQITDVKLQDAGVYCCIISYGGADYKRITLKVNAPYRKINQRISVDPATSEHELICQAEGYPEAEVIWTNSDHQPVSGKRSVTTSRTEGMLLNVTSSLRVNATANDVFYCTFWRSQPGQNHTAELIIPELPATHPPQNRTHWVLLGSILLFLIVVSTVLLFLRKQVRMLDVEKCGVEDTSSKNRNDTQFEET

B1: anti-mouse LAG-3/PD-L1 mAb2 FS18-7-108-35/S1 with LALA mutation (bispecific antibody)
heavy: not shown
light: DIQMTQSPSSLSASVGDRVTITCRASQDVSTAVAWYQQKPGKAPKLLIYSASFLYSGVPSRFSGSGSGTDFTLTISSLQPEDFATYYCQQYLFTPPTFGQGTKVEIKRTVAAPSVFIFPPSDEQLKSGTASVVCLLNNFYPREAKVQWKVDNALQSGNSQESVTEQDSKDSTYSLSSTLTLSKADYEKHKVYACEVTHQGLSSPVTKSFNRGEC
notes: also called FS18-35/S1
EC50 [1]: 3.84 nM
EC50 [2]: 12.3 nM

B3: anti-mouse LAG-3 Fcab FS18-7-108-29 (designed binder)
chain: TCPPCPAPELLGGPSVFLFPPKPKDTLMISRTPEVTCVVVDVSHEDPEVKFNWYVDGVEVHNAKTKPREEQYNSTYRVVSVLTVLHQDWLNGKEYKCKVSNKALPAPIEKTISKAKGQPREPQVYTLPPSWDEPWGEDVSLTCLVKGFYPSDIVVEWESNGQPENNYKTTPPVLDSDGSFFLYSKLTVPFERWMWPDEFSCSVMHEALHNHYTQKSLSLSPG
notes: Fcab (truncated hinge, CH2, CH3)
EC50 [5]: 4.5 nM
EC50 [6]: 2.6 nM
Kd [7]: 1.5 nM
IC50 [8]: 0.6 nM

B4: anti-human LAG-3 Fcab FS18-7-33 (designed binder)
chain: B3 chain with V154A, N165D, F190Y, E191D, M194V
IC50 [9]: 2.6 nM

The next lines start with the values.

Kd [3]: 1.2 nM
koff [3]: 0.00046 s⁻¹
kon [3]: 380000 M⁻¹ s⁻¹
binding result [4]: no binding
B2: anti-human PD-L1 mAb 84G09 with LALA mutation (antibody, human IgG1, kappa, L234A L235A)
heavy: not shown
light: DIQMTQSPSSLSASVGDRVTITCRASQSISSYLNWYQQKPGKAPKPLIYVASSLQSGVPSSFSGSGSGTDFTLTISSLQPEDFATYYCQQSYSNPITFGQGTRLEIKRTVAAPSVFIFPPSDEQLKSGTASVVCLLNNFYPREAKVQWKVDNALQSGNSQESVTEQDSKDSTYSLSSTLTLSKADYEKHKVYACEVTHQGLSSPVTKSFNRGEC
notes: Human IgG1 with LALA; also called 84G09LALA; 84G09 LALA

IC50 [9]: 2.4 nM
B5: anti-human LAG-3 Fcab FS18-7-78 (designed binder)
chain: B3 chain with V154A, Q162Y, P163K, N165E, F190Y, E191D, M194V

EC50 [5]: 4.5 nM
Kd [7]: 2.1 nM
IC50 [8]: 0.7 nM
B6: anti-mouse LAG-3 Fcab FS18-7-108-35 (designed binder)
chain: B3 chain with V154S
notes: as for B3
